Experimental data: article PMC13544220, “Glycemic and bodyweight effects of GIPR coding variation reflect differences in surface expression and intrinsic functional impairment” (Science Advances, 2026)
Changes are numbered by the printed parent chain. Numbers in names are those of the source.

How the values were obtained:
Type in all cases: cell-based, human
[1] = system: wild-type and variant SNAP-GIPR; test: Surface SNAP-GIPR expression (SNAP-tag labelling) in AD293 cells; settings: for AD293 Surface: Fig S3E, mean; for Surface SNAP-GIPR expression: sheet Fig 1C;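 as to all read-outs here: scaled to the experimental average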
Method in brief: (§1)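 Read-out: whole-cell fluorescence of surface-only SNAP label (Alexa Fluor 647, 500 nM, 10 min, RT), wide-field 20X, several FOVs per well. Flat-field corrected, phase-contrast masked, nontransfected-well signal subtracted; normalized to experiment mean or wild-type.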

[2] = system: wild-type and variant SNAP-GIPR; test: Surface SNAP-GIPR expression (SNAP-tag labelling) in INS-1 cells; settings: Fig 4G; Mean
Method in brief: as §1

[3] = system: wild-type and variant SNAP-GIPR; test: Single-concentration GIP cAMP response by HTRF in AD293 cells; settings: Fig S3F, HTRF, mean;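 also: ratio to experiment-wide average response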
Description: (§2) All variants were tested in parallel on each occasion to control for transfection efficiency differences between experiments.

[4] = system: wild-type and variant SNAP-GIPR; test: Single-concentration GIP cAMP response by HTRF in INS-1 cells; settings: Fig S3E, mean
Description: as §2

[5] = system: wild-type and variant SNAP-GIPR; test: cADDis cAMP imaging in AD293 cells, ensemble, expression-matched and per decile; settings: Fig S3F, cADDis, mean;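 also: Ensemble cells as % of IBMX/FSK response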
Method in brief: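 AD293 cells reverse-transfected with wild-type or variant SNAP-GIPR plus cADDis Green Up sensor, variants run in parallel. After 24 h, surface receptor labelled with SNAP-Surface Alexa Fluor 647 (500 nM); single-cell cADDis fluorescence imaged at 37 °C in KRBH, 6 mM glucose, 0.1% BSA. Responses given ensemble, expression-matched by wild-type deciles, or per own decile.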

[6] = system: wild-type and variant SNAP-GIPR; test: Constitutive and agonist-mediated internalization, reversible SNAP-tag labelling, AD293 cells; design: key to Internalisation, Vehicle / Internalisation, +GIP / Internalisation, GIP-only: % internalization: residual fluorescence after Mesna vs pre-Mesna; Surface expression: unit not given here; settings: Mean; for +GIP internalisation (100 nM) / GIP-specific internalisation (100 nM) / Constitutive internalisation (100 nM) / Surface expression: Fig 4E; for +GIP internalisation (100 nM) / GIP-specific internalisation (100 nM): GIP 100 nM; for Internalisation, +GIP / Internalisation, GIP-only / Internalisation, Vehicle: Fig S4C, AD293
Method in brief: (§3)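 Percentage internalization is read as the fraction of specific SNAP fluorescence that survives Mesna stripping, compared with the image taken before Mesna. Wells are imaged in TNE buffer at pH 8.6 and again after 10 min.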

[7] = system: wild-type and variant SNAP-GIPR; test: Constitutive and agonist-mediated internalization, reversible SNAP-tag labelling, INS-1 cells; design: key to Internalisation, GIP-only / Internalisation, Vehicle / Internalisation, +GIP: % internalization: residual fluorescence after Mesna vs pre-Mesna; settings: Mean; for +GIP internalisation (100 nM) / GIP-specific internalisation (100 nM) / Constitutive internalisation (100 nM): Fig 4G; for +GIP internalisation (100 nM) / GIP-specific internalisation (100 nM): GIP 100 nM; for Internalisation, +GIP / Internalisation, GIP-only / Internalisation, Vehicle: Fig S4C, INS-1
Method in brief: as §3

[8] = column repeated, paired with cAMP 100 nM

B1: L262H (protein, UniProt P48546 22-466, looked up, variant L262H)
Gastric inhibitory …: RAETGSKGQTAGELYQRWERYRRECQETLAAAEPPSGLACNGSFDMYVCWDYAAPNATARASCPWYLPWHHHVAAGFVLRQCGSDGQWGLWRDHTQCENPEKNEAFLDQRLILERLQVMYTVGYSLSLATLLLALLILSLFRRLHCTRNYIHINLFTSFMLRAAAILSRDRLLPRPGPYLGDQALALWNQALAACRTAQIVTQYCVGANYTWLLVEGVYLHSLLVLVGGSEEGHFRYYLLHGWGAPALFVIPWVIVRYLYENTQCWERNEVKAIWWIIRTPILMTILINFLIFIRILGILLSKLRTRQMRCRDYRLRLARSTLTLVPLLGVHEVVFAPVTEEQARGALRFAKLGFEIFLSSFQGFLVSVLYCFINKEVQSEIRRGWHHCRLRRSLGEEQRQLPERAFRALPSGSGPGEVPTSRGLSSGTLPGPGNEASRELESYC
AD293 Surface [1, 8]: 0.4082 | AD293 Surface ([1]; paired with cAMP 100 pM): 0.4082 | Surface SNAP-GIPR expression ([1]; replicate 1): 0.05586 | Surface SNAP-GIPR expression ([1]; replicate 2): 0.3975 | Surface SNAP-GIPR expression ([1]; replicate 3): 0.3851 | Surface SNAP-GIPR expression ([1]; replicate 4): 0.346 | Surface SNAP-GIPR expression ([1]; replicate 5): 0.2997 | Surface SNAP-GIPR expression ([1]; replicate 6): 0.4709 | Surface SNAP-GIPR expression ([1]; replicate 7): 0.6801 | Surface SNAP-GIPR expression ([1]; replicate 8): 0.6962 | Surface SNAP-GIPR expression ([1]; replicate 9): 0.3552 | Surface SNAP-GIPR expression ([1]; replicate 10): 0.4769 | Surface SNAP-GIPR expression ([1]; replicate 11): 0.4805 | Surface SNAP-GIPR expression ([1]; replicate 12): 0.4059 | Surface SNAP-GIPR expression ([1]; replicate 13): 0.3345 | Surface SNAP-GIPR expression ([1]; replicate 14): 0.4406 | Surface SNAP-GIPR expression ([1]; replicate 15): 0.3425 | Surface SNAP-GIPR expression ([1]; replicate 16): 0.4438 | Surface SNAP-GIPR expression ([1]; replicate 17): 0.4347 | Surface SNAP-GIPR expression ([1]; replicate 18): 0.4011 | Surface SNAP-GIPR expression ([1]; replicate 19): 0.3575 | Surface SNAP-GIPR expression ([1]; replicate 20): 0.2679 | Surface SNAP-GIPR expression ([1]; replicate 21): 0.3532 | Surface SNAP-GIPR expression ([1]; replicate 22): 0.4093 | Surface SNAP-GIPR expression ([1]; replicate 23): 0.4836 | Surface SNAP-GIPR expression ([1]; replicate 24): 0.3698 | Surface SNAP-GIPR expression ([1]; replicate 25): 0.4044 | Surface SNAP-GIPR expression ([1]; replicate 26): 0.4747 | Surface SNAP-GIPR expression ([1]; replicate 27): 0.4781 | Surface SNAP-GIPR expression ([1]; replicate 28): 0.4405 | Surface SNAP-GIPR expression ([1]; replicate 29): 0.3368 | Surface SNAP-GIPR expression ([1]; replicate 30): 0.4516 | Surface SNAP-GIPR expression ([1]; replicate 31): 0.3843 | Surface SNAP-GIPR expression ([1]; replicate 32): 0.4196 | Surface SNAP-GIPR expression ([1]; replicate 33): 0.4081 | Surface SNAP-GIPR expression ([1]; replicate 34): 0.4658 | Surface SNAP-GIPR expression ([1]; replicate 35): 0.5726 | Surface SNAP-GIPR expression ([1]; replicate 36): 0.3172 | Surface SNAP-GIPR expression ([1]; replicate 37): 0.2985 | Surface SNAP-GIPR expression ([1]; replicate 38): 0.4456 | Surface SNAP-GIPR expression ([1]; replicate 39): 0.3825 | Surface SNAP-GIPR expression ([1]; replicate 40): 0.3992 | Surface SNAP-GIPR expression ([1]; replicate 41): 0.3665 | Surface expression [2]: 0.4629 | AD293 100 pM HTRF [3]: 0.1729 | AD293 100 nM HTRF [3]: 1.14 | INS-1 cAMP (100 nM) [4]: 0.9739 | AD293 100 pM cADDis [5]: 18.6863 | AD293 100 nM cADDis [5]: 34.26 | +GIP internalisation (100 nM) [6]: 0.2171 | GIP-specific internalisation (100 nM) [6]: 0.04083 | Constitutive internalisation (100 nM) [6]: 0.1763 | Surface expression [6]: 0.3728 | Internalisation, +GIP [6]: 58.197 | Internalisation, GIP-only [6]: 10.9885 | Internalisation, Vehicle [6]: 47.2085 | +GIP internalisation (100 nM) [7]: 0.2099 | GIP-specific internalisation (100 nM) [7]: 0.0574 | Constitutive internalisation (100 nM) [7]: 0.1525 | Internalisation, +GIP [7]: 50.32 | Internalisation, GIP-only [7]: 13.8767 | Internalisation, Vehicle [7]: 36.4433

B2: D66G (protein, UniProt P48546 22-466, looked up, variant D66G)
Gastric inhibitory …: B1 Gastric inhibitory … with D45G, H241L
AD293 Surface [1, 8]: 0.2845 | AD293 Surface ([1]; paired with cAMP 100 pM): 0.2845 | Surface SNAP-GIPR expression ([1]; replicate 1): 0.2625 | Surface SNAP-GIPR expression ([1]; replicate 2): 0.397 | Surface SNAP-GIPR expression ([1]; replicate 3): 0.1659 | Surface SNAP-GIPR expression ([1]; replicate 4): 0.02117 | Surface SNAP-GIPR expression ([1]; replicate 5): 0.3372 | Surface SNAP-GIPR expression ([1]; replicate 6): 0.161 | Surface SNAP-GIPR expression ([1]; replicate 7): 0.3578 | Surface SNAP-GIPR expression ([1]; replicate 8): 0.377 | Surface SNAP-GIPR expression ([1]; replicate 9): 0.35 | Surface SNAP-GIPR expression ([1]; replicate 10): 0.5096 | Surface SNAP-GIPR expression ([1]; replicate 11): 0.4534 | Surface SNAP-GIPR expression ([1]; replicate 12): 0.5149 | Surface SNAP-GIPR expression ([1]; replicate 13): 0.197 | Surface SNAP-GIPR expression ([1]; replicate 14): 0.2293 | Surface SNAP-GIPR expression ([1]; replicate 15): 0.3425 | Surface SNAP-GIPR expression ([1]; replicate 16): 0.4052 | Surface SNAP-GIPR expression ([1]; replicate 17): 0.4309 | Surface SNAP-GIPR expression ([1]; replicate 18): 0.3854 | Surface SNAP-GIPR expression ([1]; replicate 19): 0.4111 | Surface SNAP-GIPR expression ([1]; replicate 20): 0.3991 | Surface SNAP-GIPR expression ([1]; replicate 21): 0.5534 | Surface SNAP-GIPR expression ([1]; replicate 22): 0.4128 | Surface SNAP-GIPR expression ([1]; replicate 23): 0.3708 | Surface SNAP-GIPR expression ([1]; replicate 24): 0.3827 | Surface SNAP-GIPR expression ([1]; replicate 25): 0.2399 | Surface SNAP-GIPR expression ([1]; replicate 26): 0.2568 | Surface SNAP-GIPR expression ([1]; replicate 27): 0.1279 | Surface SNAP-GIPR expression ([1]; replicate 28): 0.1278 | Surface SNAP-GIPR expression ([1]; replicate 29): 0.1867 | Surface SNAP-GIPR expression ([1]; replicate 30): 0.2491 | Surface SNAP-GIPR expression ([1]; replicate 31): 0.2077 | Surface SNAP-GIPR expression ([1]; replicate 32): 0.1171 | Surface SNAP-GIPR expression ([1]; replicate 33): 0.1153 | Surface SNAP-GIPR expression ([1]; replicate 34): 0.2022 | Surface SNAP-GIPR expression ([1]; replicate 35): 0.2952 | Surface SNAP-GIPR expression ([1]; replicate 36): 0.2071 | Surface SNAP-GIPR expression ([1]; replicate 37): 0.2146 | Surface SNAP-GIPR expression ([1]; replicate 38): 0.1357 | Surface SNAP-GIPR expression ([1]; replicate 39): 0.1562 | Surface SNAP-GIPR expression ([1]; replicate 40): 0.1831 | Surface SNAP-GIPR expression ([1]; replicate 41): 0.2136 | Surface expression [2]: 0.1735 | AD293 100 pM HTRF [3]: 0.1227 | AD293 100 nM HTRF [3]: 0.328 | INS-1 cAMP (100 nM) [4]: -0.2661 | AD293 100 pM cADDis [5]: -0.704 | AD293 100 nM cADDis [5]: 4.118 | +GIP internalisation (100 nM) [6]: 0.106 | GIP-specific internalisation (100 nM) [6]: -0.001031 | Constitutive internalisation (100 nM) [6]: 0.1071 | Surface expression [6]: 0.1742 | Internalisation, +GIP [6]: 61.627 | Internalisation, GIP-only [6]: -0.8775 | Internalisation, Vehicle [6]: 62.5045 | +GIP internalisation (100 nM) [7]: 0.08951 | GIP-specific internalisation (100 nM) [7]: -0.01151 | Constitutive internalisation (100 nM) [7]: 0.101 | Internalisation, +GIP [7]: 50.62 | Internalisation, GIP-only [7]: -7.618 | Internalisation, Vehicle [7]: 58.2383
